PMC6510727
pKd: −log10 of the molar value. Where “and” joins values, the source holds several entries; their conditions need not be identical. Equal entries are not always repeated.

What was measured:
[1] = target: PDE catalytic subunit (PDEα or PDEβ) of frog rod PDE (frog (Rana catesbeiana)); assay: PDE activity on dilution (pH assay), fitted with equation (s5); frog ROS membranes at various concentrations of PDE (≤40 nM; PDE/rhodopsin taken as 1/270), in the light without GTP, 5 mM cGMP, room temperature
[2] = target: PDE catalytic subunit (PDEα or PDEβ) of frog rod PDE (frog (Rana catesbeiana)); assay: PDE activity on dilution (pH assay), fitted with equation (s5); purified PDE at diluted low concentrations (≤40 nM), in the light without GTP, 5 mM cGMP, room temperature; relative to trypsin-treated full activity
[3] = target: PDE catalytic subunit (PDEα or PDEβ) of frog rod PDE (frog (Rana catesbeiana)); assay: co-purification (Mono Q, Superdex 200) with SDS-PAGE quantification; native PDE purified from frog ROS membranes to almost 100% purity; subunits quantified on Oriole-stained gels with bovine serum albumin as molar standard

native PDEγ of frog rod PDE (freed reversibly from the catalytic subunit) (from UniProt H1AAN5 1-87) (natural protein)
pKd [1]: 10.22 to 10.40 and 10.27
pKd [2]: 11.00 and 10.70 to 11.30
molar ratio of 2PDEγ/PDEαβ [3]: 1.01
